According to publication PMC3072150 (Biochemistry, 2009):

Columns and labels:
[1] = target: DnaC protein (hexamer assembled on DnaB) in the binary DnaB–DnaC complex (Escherichia coli, UniProt P0AEF0); experiment: fluorescence titration; assay type: binding
[2] = target: DnaB helicase;DnaC protein (Escherichia coli;Escherichia coli, UniProt P0ACB0;P0AEF0 1-471;1-245, |); experiment: fluorescence titration and sedimentation velocity of cofactor
[3] = target: DnaB helicase (Escherichia coli, UniProt P0ACB0 1-471); experiment: fluorescence titration
DnaB helicase, sequence (P0ACB0 whole entry): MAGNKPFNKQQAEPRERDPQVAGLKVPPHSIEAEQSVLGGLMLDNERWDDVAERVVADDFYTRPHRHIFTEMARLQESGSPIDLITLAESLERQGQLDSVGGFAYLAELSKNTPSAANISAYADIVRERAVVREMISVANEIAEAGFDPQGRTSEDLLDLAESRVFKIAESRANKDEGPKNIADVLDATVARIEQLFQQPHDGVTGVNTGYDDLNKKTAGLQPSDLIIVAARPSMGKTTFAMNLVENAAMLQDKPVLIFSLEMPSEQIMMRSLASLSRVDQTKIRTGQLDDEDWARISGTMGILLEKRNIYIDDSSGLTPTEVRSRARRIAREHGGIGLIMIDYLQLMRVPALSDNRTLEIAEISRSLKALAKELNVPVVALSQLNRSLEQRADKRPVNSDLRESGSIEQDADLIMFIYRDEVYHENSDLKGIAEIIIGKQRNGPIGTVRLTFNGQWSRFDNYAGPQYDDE

DnaB helicase;DnaC protein, sequence (P0ACB0 whole entry, chain 1 of 2): as the sequence (P0ACB0 whole entry) above
DnaB helicase;DnaC protein, sequence (P0AEF0 whole entry, chain 2 of 2): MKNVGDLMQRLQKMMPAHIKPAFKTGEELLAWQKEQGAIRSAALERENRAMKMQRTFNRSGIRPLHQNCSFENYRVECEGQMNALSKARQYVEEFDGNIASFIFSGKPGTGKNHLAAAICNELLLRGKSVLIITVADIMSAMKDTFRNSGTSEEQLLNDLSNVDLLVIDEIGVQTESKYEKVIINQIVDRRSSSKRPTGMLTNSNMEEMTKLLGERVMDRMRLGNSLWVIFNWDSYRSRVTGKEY
DnaC protein (hexamer assembled on DnaB) in the binary DnaB–DnaC complex, sequence (P0AEF0 whole entry): as the sequence (P0AEF0 whole entry, chain 2 of 2) above
DnaC protein (hexamer assembled on DnaB) in the binary DnaB–DnaC complex, sequence (P0ACB0 2-471 partner): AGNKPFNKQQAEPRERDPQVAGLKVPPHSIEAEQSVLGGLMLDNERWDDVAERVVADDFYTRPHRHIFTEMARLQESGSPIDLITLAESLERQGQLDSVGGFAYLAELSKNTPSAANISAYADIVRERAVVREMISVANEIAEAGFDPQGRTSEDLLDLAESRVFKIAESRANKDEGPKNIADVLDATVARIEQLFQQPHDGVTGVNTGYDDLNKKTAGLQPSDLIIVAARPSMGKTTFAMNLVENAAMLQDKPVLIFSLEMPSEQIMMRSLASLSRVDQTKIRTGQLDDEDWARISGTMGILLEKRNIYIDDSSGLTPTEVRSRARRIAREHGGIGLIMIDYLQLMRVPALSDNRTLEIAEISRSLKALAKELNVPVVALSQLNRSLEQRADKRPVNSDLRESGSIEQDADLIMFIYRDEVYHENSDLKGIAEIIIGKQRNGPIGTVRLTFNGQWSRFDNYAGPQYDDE

Molecule	Kd [1] [µM]	binding result [2]	binding result [3]
CNc1ccccc1C(=O)O[C@H]1[C@@H](O)[C@H](n2cnc3c(N)ncnc32)O[C@@H]1CO[P@@](=O)(O)O[P@](=O)(O)OP(=O)(O)O [MANT-ATP, 3′-O-(N-methylanthraniloyl)adenosine 5′-triphosphate]	4.17		
AAAAAAAAAAAAAAAAAAAA (ssDNA) [dA(pdA)19 (ssDNA 20-mer)]		binds	binds
